Key:
human PD-1/CD279 = human PD-1/CD279 (Homo sapiens, UniProt Q15116); test: PD-1 binding ELISA (Example 5); conditions: coated antibody or immunocytokine, biotinylated human PD-1/CD279-Fc
Description: (§1) The interaction of the unmodified antibodies and corresponding IL-18 immunocytokines with relevant immune cell associated antigen are measured by ELISA assay. For these studies, Corning high-binding half-area plates (Fisher Scientific, Reinach, Switzerland) are coated overnight at 4° C. with 25 μl of unmodified antibodies corresponding IL-18 immunocytokines at 5 μg/ml in PBS. Plates are then washed four times with 100 μl of PBS-0.02% Tween20. Plate surfaces are blocked with 25 μl of PBS-0.02% Tween20-1% BSA at 37° C. during 1 h. Plates are then washed four times with 100 μl of PBS-0.02% Tween20. […] Plates are then washed four times with 100 μl of PBS-0.02% Tween20. Twenty-five microliters of Streptavidin-Horseradish peroxidase (#RABHRP3, Merck, Buchs, Switzerland) diluted at 1:500 into PBS-0.02% Tween20-0.1% BSA are added to each well and incubated at Room Temperature during 30 min. Plates are then washed four times with 100 μl of PBS-0.02% Tween20. Fifty microliters of TMB substrate reagent (#CL07, Merck, Buchs, Switzerland) are added to each well and incubated at 37° C. during 5 min. After 5 min at 37° C., Horseradish peroxidase reaction is stopped by adding 50 μl/well of 0.5M H2SO4 stop solution. ELISA signal is then measured at 450 nm on an ENSPTRE® plate reader from Perkin Elmer (Schwerzenbach, Switzerland).

human PD-L1/B7-H1 = human PD-L1/B7-H1 (Homo sapiens, UniProt Q9NZQ7); test: PD-L1 binding ELISA (Example 5); conditions: coated antibody or immunocytokine, biotinylated human PD-L1/B7-H1
human PD-L1/B7-H1, sequence (Q9NZQ7 19-290): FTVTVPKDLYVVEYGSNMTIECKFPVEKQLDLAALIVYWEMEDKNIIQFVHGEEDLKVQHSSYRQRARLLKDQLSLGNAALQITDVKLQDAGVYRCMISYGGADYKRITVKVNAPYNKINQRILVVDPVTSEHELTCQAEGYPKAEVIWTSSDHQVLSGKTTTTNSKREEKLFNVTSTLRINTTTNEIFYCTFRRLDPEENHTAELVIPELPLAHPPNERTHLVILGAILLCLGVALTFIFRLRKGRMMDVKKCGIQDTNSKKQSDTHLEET
Description: as §1

[1] = test system: PD-1 positive (transduced) KG-1 cells; test: IFN gamma secretion assay in PD-1 transduced KG-1 cells (Example 11); type: cell-based, human; conditions: IFNγ secretion, PD-1 transduced KG-1 cells, 20-24 h
Description: The KG-1 cell line was used to generate a PD-1 expressing cell line and furthermore, to measure IFNγ release upon incubation with TL-18 variants and corresponding TL-18 immunocytokines.
PD-1 expressing cell line generation: Briefly, KG-1 cells were transduced using lentiviral particles carrying the human PD-1 gene (PDCD1 NM_005018; Origene, CAT #: RC210364L3V) at a MOI (Multiplicity of Infection) of 30. Spinfection was performed at 1260 g during 90 min at 37° C. in the presence of 5 μg/ml of Polybrene and 10 mM of HEPES in complete culture media (RPMI, 10% FBS, 1% L-Glutamine). Five days after transduction, puromycin at a final concentration of 1 μg/ml was added to select for PD-1 positive cells. For culture maintenance, puromycin concentration was decreased to 0.5 μg/ml. Stable and homogenous expression of PD-1 was verified by surface staining (BD Pharmingen, #557860).
IFNγ release was assessed in PD-1 positive (transduced) KG-1 cells, as well as in the parental PD-1 negative cells. 0.5×10^5 cells were seeded into a 96-well U-bottom plate in culture media (RPMI, 10% FBS, […]) and stimulated with IL-18 variants/ICs for 20-24 h. The test items were diluted to 100 nM in culture medium, followed by 7 10-fold serial dilutions. The lowest concentration assessed was […]. After incubation, IFNγ release was measured using the LEGENDplex custom human mix and match KIT (Biolegend LEGENDplex™ Human IFN-γ Capture Bead B5, 13×#740942, LEGENDplex™ P 1 Essential Immune Response Panel Detection Abs, #740931, LEGENDplex™ Buffer Set A #740368). To this end, cell culture supernatant was collected and diluted 1:1 with Assay Buffer. Fluorescence measurements were done with a Quanteon Flow Cytometer from Acea Biosciences. For analysis, MFI values (median fluorescence intensity) were exported and plotted against concentrations used. The EC50 values (half maximal effective concentration) were calculated based on a variable slope and four parameter analysis using GraphPad PRISM software version 9.

[2] = target: T1, human IL-18 binding protein isoform a (IL-18BPa) (Homo sapiens, UniProt O95998); test: Cellular IL-18 Binding protein resistance assay in NK-92 cells (Example 13); type: cell-based; conditions: NK92 cells, IL-18 analyte 1 nM final, IL-18BPa titrated, 1 ng/ml IL-12; read-out: IC50 IL-18BP-mediated inhibition of IFNγ secretion
T1 sequence (O95998 31-194): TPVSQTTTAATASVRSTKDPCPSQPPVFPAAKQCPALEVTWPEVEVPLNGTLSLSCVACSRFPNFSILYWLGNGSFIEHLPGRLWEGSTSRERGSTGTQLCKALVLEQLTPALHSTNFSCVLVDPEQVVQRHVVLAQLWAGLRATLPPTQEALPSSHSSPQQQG
Description: The NK cell line NK-92 derived from a patient with lymphoma (ATCC, Cat #CRL-2407) was cultured in aMEM medium supplemented with 20% FCS-Glutamax, 25 μM B-mercaptoEthanol, and 100 IU/ml of recombinant Human Interleukin-2 (TL-2). On the day of experiment, cells were harvested and washed with aMEM medium without IL-2. After counting, cells were seeded at 100 000 cells/well in a 384 well titer plate and incubated at 37° C./5% CO2. Sixteen 2-fold serial dilutions of Fc fused human IL-18 binding protein isoform a (IL-18BPa; R&D systems, Cat #119-BP) were prepared in aMEM medium-1 ng/ml IL-12 containing 2 nM of each IL-18 variants and were added to the NK-92 cells. Final IL-18 analytes concentration was 1 nM and final IL-18BPa concentrations ranged from to 566 nM down to 17 pM.
After 16-20 h incubation at 37° C./5% CO2, 5 μl of supernatant were carefully transferred to a 384 microwells OPTIplate (Perkin Elmer; Cat #6007270) and Interferon-gamma (IFNγ) levels measured using the Human IFNγ AlphaLISA Assay Kit (Perkin Elmer, Cat #AL217C). Briefly, 10 μl of 2.5× AlphaLISA Anti-IFNγ acceptor beads and biotinylated Antibody Anti-IFNγ mix were added to the 5 μl of NK-92 supernatants and incubated for 1 h at room temperature under shaking. Under subdued light, 2.5 μl of 2× streptavidin (SA) donor beads were pipetted in each well and incubated for 30 min at room temperature under shaking. AlphaLisa signal was then measured on an Enspire plate reader (Perkin Elmer) using 680 and 615 nm as excitation and emission wavelengths respectively. Half maximal inhibitory concentration (IC50) was calculated based on a variable slope, four parameter analysis using GraphPad PRISM software.

human PD-1/CD279, sequence (Q15116 25-288): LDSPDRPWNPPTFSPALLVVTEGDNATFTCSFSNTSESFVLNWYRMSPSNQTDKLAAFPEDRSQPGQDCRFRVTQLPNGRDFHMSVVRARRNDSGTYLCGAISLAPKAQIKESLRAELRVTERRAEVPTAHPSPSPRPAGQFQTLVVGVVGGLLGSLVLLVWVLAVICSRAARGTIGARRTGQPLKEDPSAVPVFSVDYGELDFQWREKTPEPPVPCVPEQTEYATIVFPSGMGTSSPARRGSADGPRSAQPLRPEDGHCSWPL

With “Atezolizumab/Tecentriq: anti-PD-L1 antibody, unconjugated reference antibody [reference compound]” the Kd (human PD-1/CD279) was greater than 100 nM and the Kd (human PD-L1/B7-H1) was 0.443 nM.
“Composition B: immunocytokine: Atezolizumab/Tecentriq (anti-PD-L1) conjugated to IL-18 polypeptide SEQ ID NO: 30” gave a Kd (human PD-1/CD279) greater than 100 nM, an EC50 [1] of 0.0036 nM and an IC50 [2] greater than 1000 nM.
In the case of “LZM-009: anti-PD-1 antibody (VH SEQ ID NO: 376, VL SEQ ID NO: 377), unconjugated reference antibody [reference compound]”, the Kd (human PD-L1/B7-H1) is reported as greater than 100 nM.

— US12383631B2, “Immune antigen specific IL-18 immunocytokines and uses thereof” (Bright Peak Therapeutics AG, priority 2022, dated 2025)
